Values of other authors in patent US6468959B1, “Peroral dosage form for peptide containing medicaments, in particular insulin” (ALFATEC-Pharm GmbH, priority 1991, dated 2002).

Settings: weakly acid environments of pH 3 to 4 and at pH 7 to 8

In the case of insulin, the solubility is given as “soluble” and the stability is given as “adequately stable”.
